Experiment [1] addresses in vitro translated S38A wee1 (UniProt P47817). The experiment in a line: glutathione precipitation from Xenopus interphase egg extract with nuclei and MG132, wee1 Western blot.
Experiment [2] addresses in vitro translated wild-type wee1 (UniProt P47817). The experiment is described as above.

“GST-Tome-1 (as used in the wee1 binding assay in Xenopus egg extracts) (from UniProt P08515 1-218)”: the % of input wee1 precipitated in experiment [1] is 2.5 % of input. The % of input wee1 pulled down in experiment [2] was 25 % of input.
On to “GST-VCA (GST fusion with the C terminus of the actin nucleating scaffolding protein N-WASP) (from UniProt P08515 1-218)”, for which the % of input wee1 precipitated in experiment [1] and in experiment [2] was 8 % of input each time.

The values above are taken from patent publication US20050130175A1.
